Laboratory results as given in article PMC4049620.

Tests used:
[1] = molecular target: T9 SipA_(36-173), N-terminally His-tagged (entire extracellular region of SipA from S. pyogenes serotype T9 strain 90/306S) (Streptococcus pyogenes serotype T9 strain 90/306S); assay: crystal structure; Space group P6_(4)22, two molecules in the asymmetric unit; octamer built by crystal symmetry; crystals grown at 18°C from 1 M NaKPO4 pH 7.0, 8% MPD
[2] = molecular target: T9 SipA_(36-173), N-terminally His-tagged (entire extracellular region of SipA from S. pyogenes serotype T9 strain 90/306S) (Streptococcus pyogenes serotype T9 strain 90/306S); assay: SEC + other: dynamic light scattering; Superdex S200 10/300 in 10 mM Tris.Cl pH 8.0, 100 mM NaCl; single peak, species of about 150 kDa after glycine treatment; data not shown
[3] = molecular target: T9 SipA_(36-173), N-terminally His-tagged (entire extracellular region of SipA from S. pyogenes serotype T9 strain 90/306S) (Streptococcus pyogenes serotype T9 strain 90/306S); assay: SAXS; Australian Synchrotron SAXS/WAXS beamline; dilution series 1-20 mg/ml; experimental curve compared by CRYSOL with the curve calculated from the crystal octamer (chi^2 = 1.29)

Measured: stoichiometry N

T9 SipA_(36-173), N-terminally His-tagged (entire extracellular region of SipA from S. pyogenes serotype T9 strain 90/306S) (domain or fragment)
8: all assays above
